This is an account of results in US20220033515A1 (Genentech, published 2022).

Where a chain is given by its changes, count along the chain named.

Experiment [1] deals with T1, hVEGF109 (human, UniProt P15692 214-315).
T1 construct: range 8-109; also called VEGF (8-109)
T1 sequence (looked up): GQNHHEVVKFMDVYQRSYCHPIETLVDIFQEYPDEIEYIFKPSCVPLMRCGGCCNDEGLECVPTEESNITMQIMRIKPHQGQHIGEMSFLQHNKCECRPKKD
Nature of the experiment: single-spot competitive phage ELISA.

For experiment [2], the target named is T2, HER2 extracellular domain (Her2-ECD) (human, UniProt P04626 23-652).
T2 construct: extracellular domain; also called hHER2 extracellular domain (ECD)
Nature of the experiment: single-spot competitive phage ELISA.

Experiment [3] concerns the target T1, hVEGF109. In words: ELISA on immobilised target.
The target in another experiment is T3, hVEGF165 (human, UniProt P15692-4 27-191).
T3 construct: also called human VEGF165
In words: ELISA on immobilised target.

The next experiment deals with T4, murine VEGF (mVEGF) (murine, UniProt Q00731-2 27-190).
T4 sequence (looked up): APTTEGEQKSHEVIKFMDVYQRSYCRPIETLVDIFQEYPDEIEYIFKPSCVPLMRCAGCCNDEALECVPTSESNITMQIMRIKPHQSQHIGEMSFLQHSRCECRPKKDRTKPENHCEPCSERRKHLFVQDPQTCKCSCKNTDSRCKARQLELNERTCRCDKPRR
Nature of the experiment: ELISA on immobilised target.

The target of experiment [4] is T5, human vascular endothelial growth factor (hVEGF) (human, UniProt P15692-4 27-191).
T5 construct: also called hVEGF-A; human vascular endothelial growth factor A
In words: ELISA on immobilised protein.

A further experiment has as its target T6, hVEGF-C (human, UniProt P49767 103-227).
T6 sequence (looked up): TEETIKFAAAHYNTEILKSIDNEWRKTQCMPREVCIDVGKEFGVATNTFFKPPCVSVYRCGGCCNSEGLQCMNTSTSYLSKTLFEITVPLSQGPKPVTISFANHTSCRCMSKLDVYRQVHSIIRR
In words: ELISA on immobilised protein.

The next experiment addresses T7, hVEGF-D (human, UniProt O43915 93-201).
T7 sequence (looked up): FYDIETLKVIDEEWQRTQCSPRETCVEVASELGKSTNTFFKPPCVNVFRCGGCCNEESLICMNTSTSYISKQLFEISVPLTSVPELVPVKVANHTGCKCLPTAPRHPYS
Nature of the experiment: ELISA on immobilised protein.

Experiment [5] deals with T8, epidermal growth factor receptor extracellular domain (hEGFR) (human, UniProt P00533 25-645).
T8 construct: extracellular domain
In words: ELISA on immobilised protein.

For experiment [6], the target named is bovine serum albumin (BSA) (bovine, UniProt P02769 25-607). Nature of the experiment: ELISA on immobilised protein.
Experiment [7] has as its target T2, HER2 extracellular domain (Her2-ECD). In words: competition ELISA of phage-displayed Fab.
Experiment [8] shares this target. Nature of the experiment: Biacore SPR.
The target is the same in experiment [9]. Nature of the experiment: equilibrium KD; method and format (Fab or IgG) not given; HER2, second number of the cell.
Experiment [10] has as its target T1, hVEGF109. In words: Biacore SPR.

B1: clone 12 (scFv, V domains shown)
VH: not shown
VL: DIQMTQSPSSLSASVGDRVTITCRASQDIGGGSVAWYQQKPGKAPKLLIYWGSFLYSGVPSRFSGSGSGTDFTLTISSLQPEDFATYYCQQHYTTPPTFGQGTKVEIK
With B1, the “% signal, SSC +/- 50 or 100nM VEGF” value with hVEGF109 [1] is 81.3%. Besides, the OD450 without competitor with hVEGF109 [1] came to 2.23; in experiment [2], 0.04.

B2: clone 27 (scFv, V domains shown)
VH: not shown
VL: DIQMTQSPSSLSASVGDRVTITCRASQYVYSTTVAWYQQKPGKAPKLLIYNGSSLYSGVPSRFSGSGSGTDFTLTISSLQPEDFATYYCQQASSAPPTFGQGTKVEIK
B2: in the experiment with hVEGF109 [1], the “% signal, SSC +/- 50 or 100nM VEGF” value is 95.7% and the OD450 without competitor came to 2.82. This molecule also registered an OD450 without competitor in [2] of 0.04.

B3: clone 45 (scFv, V domains shown)
VH: not shown
VL: B1 VL with G30H, G31S, F54Y
On to B3, for which, in the experiment with hVEGF109 [1], the “% signal, SSC +/- 50 or 100nM VEGF” value came to 88.2% and the OD450 without competitor was determined as 3.08. In [2], this molecule returned an OD450 without competitor of 0.05.

B4: D1 hIgG (antibody, V domains shown)
VH: not shown
VL: DIQMTQSPSSLSASVGDRVTITCRASQNVSKHVAWYQQKPGKAPKLLIYWGSYLYSGVPSRFSGSGSGTDFTLTISSLQPEDFATYYCQQSYSGPPTFGQGTKVEIKR
notes: also called bD1 IgG; D1 (anti-hDR5/Her2); not shown: rest of the human IgG heavy chain constant region
Consider B4, for which the binding result in the experiment with hVEGF109 [3] is on record as “no binding (tested: 100 nM (text))”; in the experiment with hVEGF165, “no binding (tested: 100 nM (text))”; with murine VEGF (mVEGF), “no binding (tested: 100 nM (text))”; in experiment [4] it was “no binding (tested: 100 or 500 nM (text))”; with hVEGF-C, “no binding (tested: 100 or 500 nM (text))”; with hVEGF-D, “no binding (tested: 100 or 500 nM (text))”. The binding result in experiment [5] and in [6] was “no binding (tested: 100 or 500 nM (text))” throughout.

B5: 20.49 (Fab, V domains shown)
VH: not shown
VL: DIQMTQSPSSLSASVGDRVTITCRASVDLPKSVSGYVAWYQQKPGKAPKLLIYWGSFLYSGVPSRFSGSGSGTDFTLTISSLQPEDFATYYCQQHFTSPPTFGQGTKVEIKR
B5 gave an IC50 in experiment [7] of 2.6 nM.

B6: bH1 Fab (Fab, V domains shown)
VH: not shown
VL: B5 VL with V27Q, L29I, K31R, V33I, F57Y, F96Y, S98T
notes: also called bispecific bH1 Fab
B6 yielded a Kd in [8] of 59 nM. In [7], this molecule came in with an IC50 of 2.1 nM.

B7: 35.95 (Fab, V domains shown)
VH: not shown
VL: B5 VL with S26I, V27E, D28N, F96Y
B7: the IC50 in [7] was found to be 4.3 nM. In other words, the single-digit nanomolar range.

B8: 35.61 (Fab, V domains shown)
VH: not shown
VL: B5 VL with S26I, V27E, D28N, V33I, S34T, F96Y, T97S, S98T, P99T, T101K
Molecule B8 showed an IC50 in experiment [7] of 7.1 nM.

B9: 35.74 (Fab, V domains shown)
VH: not shown
VL: B5 VL with S26I, V27Q, L29I, S32T, V33I, S34T, T97N, T101K
Molecule B9 displayed an IC50 in [7] of 0.7 nM. This IC50 is about 10-fold lower than that of the molecule before.

B10: 35.87 (Fab, V domains shown)
VH: not shown
VL: B5 VL with V27Q, D28N, L29I, T97N
On to B10, for which the IC50 in experiment [7] was determined as 2.2 nM.

B11: 35.56 (Fab, V domains shown)
VH: not shown
VL: B5 VL with S26V, V27Q, D28N, S32T, V33I, S34T, F96Y, S98I, T101K
In experiment [7], B11 gave an IC50 of 1.7 nM.

B12: 20.52 (Fab, V domains shown)
VH: not shown
VL: B5 VL with S26I, V27E, D28N, S32T, V33I, T97S
B12 registered an IC50 in experiment [7] of 3.1 nM.

B13: 35.28 (Fab, V domains shown)
VH: not shown
VL: B5 VL with S26I, V27Q, D28N, L29I, P30A, S32T, V33I, S34T, T97N, T101K
With B13, the IC50 in experiment [7] stood at 0.6 nM.

B14: 35.2 (Fab, V domains shown)
VH: not shown
VL: B5 VL with S26I, V27E, S32T, F96Y, T97S
With B14, in [7], the IC50 turned out to be 3.5 nM.

B15: 35.21 (Fab, V domains shown)
VH: not shown
VL: B5 VL with V27Q, V33I, T97S
Take B15: in [7], the IC50 came to 1.4 nM.

B16: 20.80 (Fab, V domains shown)
VH: not shown
VL: B5 VL with V27E, L29I, V33I, T97S
The molecule B16 gave an IC50 in experiment [7] of 2.2 nM. Against the preceding molecule, the IC50 is about 1.6-fold higher.

B17: 35.25 (Fab, V domains shown)
VH: not shown
VL: B5 VL with S26I, V27Q, D28K, L29V, K31R, S32T, V33I, S34T, F96Y
Regarding B17, the IC50 in [7] was 0.4 nM.

B18: 20.93 (Fab, V domains shown)
VH: not shown
VL: B5 VL with S26V, V27E, S32T, V33I, S34T, S98T, T101K
For B18, in experiment [7], the IC50 is 3.8 nM.

B19: 35.45 (Fab, V domains shown)
VH: not shown
VL: B5 VL with V27E, L29I, S32T, T97S
For the molecule B19, the IC50 in experiment [7] is 1.1 nM. Against the preceding molecule, the IC50 is about 3.5-fold lower.

B20: 3-3 (scFv, V domains shown)
VH: not shown
VL: DIQMTQSPSSLSASVGDRVTITCRASQQIWRHLAWYQQKPGKAPKLLIYTGSSLYSGVPSRFSGSGSGTDFTLTISSLQPEDFATYYCQQSYWVAPPTFGQGTKVEIK
notes: also called c3-3
In [2], B20 gave an OD450 without competitor of 0.05.

B21: clone 6 (scFv, V domains shown)
VH: not shown
VL: B20 VL with Q28D, H32A, L33V, T50P, G51A, S53N, S91G, W93Y, V94I
For B21, the “% signal, SSC +/- 50 or 100nM VEGF” value in the experiment with hVEGF109 [1] was found to be 85.6%. In addition, the OD450 without competitor with hVEGF109 [1] was determined as 2.12; in experiment [2], 0.04.

B22: H6 (scFv, V domains shown)
VH: not shown
VL: B20 VL with Q28Y, R31N, H32Y, L33V, T50G, Y92W, V94A, A95G
For the molecule B22, in experiment [2], the OD450 without competitor is 0.05.

B23: clone 75 (scFv, V domains shown)
VH: not shown
VL: DIQMTQSPSSLSASVGDRVTITCRASQDIPSIYVAWYQQKPGKAPKLLIYGASYLYSGVPSRFSGSGSGTDFTLTISSLQPEDFATYYCQQRYWVAPPTFGQGTKVEIK
Regarding B23, the “% signal, SSC +/- 50 or 100nM VEGF” value in the experiment with hVEGF109 [1] worked out at 85.1%. The values for the OD450 without competitor (with hVEGF109 [1]; in [2]) were 2.9 and 0.07, respectively.

B24: clone 67 (lower block) (scFv, V domains shown)
VH: not shown
VL: DIQMTQSPSSLSASVGDRVTITCRASQDIWRWLAWYQQKPGKAPKLLIYAGSSLYSGVPSRFSGSGSGTDFTLTISSLQPEDFATYYCQQHDQAPPTFGQGTKVEIK
For B24, the “% signal, SSC +/- 50 or 100nM VEGF” value in the experiment with hVEGF109 [1] came out at 85.8%. Besides, the OD450 without competitor with hVEGF109 [1] came to 1.05; in experiment [2] it was 0.05.

B25: bH4 (antibody, V domains shown)
VH: not shown
VL: DIQMTQSPSSLSASVGDRVTITCRASQDIRSGSVAWYQQKPGKAPKLLIYWGSYLYSGVPSRFSGSGSGTDFTLTISSLQPEDFATYYCQQHYTTPPTFGQGTKVEIKR
Turning to B25, in [9], binding was characterised by a dissociation constant (Kd) of 11 nM.

B26: H3 Fab (Fab, V domains shown)
VH: not shown
VL: B25 VL with R30G, S31L, G52A
notes: also called bH3 Fab
In the case of B26, the Kd was 3930 nM with hVEGF109 [10] and 8 nM in experiment [8].
